Values joined by “and” are separate entries in the source; they are usually repeats but may differ in a detail not shown here. Equal entries are not always repeated.
T1: Kvβ1.1CFP (mouse (from the prefix m in mKvβ1.1), UniProt P63143 1-401)
T1 construct: voltage-gated potassium channel regulatory subunit Kvβ1.1 (splice form 1.1 of Kvβ1), mouse by the prefix m in mKvβ1.1; also called mKvβ1.1 in pECFP-N1; Kvb1.1CFP; source: HEK-293, transfected; in lysate (co-IP) and in cells or membrane sheets (FRET)
T1 sequence (looked up): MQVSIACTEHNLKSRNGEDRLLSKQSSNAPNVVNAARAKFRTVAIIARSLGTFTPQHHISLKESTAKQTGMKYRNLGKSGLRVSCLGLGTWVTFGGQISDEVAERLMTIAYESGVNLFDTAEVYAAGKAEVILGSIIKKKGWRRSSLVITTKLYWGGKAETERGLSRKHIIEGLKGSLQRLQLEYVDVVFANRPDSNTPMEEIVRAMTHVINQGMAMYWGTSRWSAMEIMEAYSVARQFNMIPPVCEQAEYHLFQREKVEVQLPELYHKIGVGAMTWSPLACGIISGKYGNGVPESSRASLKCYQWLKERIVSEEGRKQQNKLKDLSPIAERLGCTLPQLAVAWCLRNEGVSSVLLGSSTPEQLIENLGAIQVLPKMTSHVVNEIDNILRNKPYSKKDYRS

T2: Kvβ2.1YFP (mouse (from the prefix m in mKvβ2.1)), P62482
T2 chain: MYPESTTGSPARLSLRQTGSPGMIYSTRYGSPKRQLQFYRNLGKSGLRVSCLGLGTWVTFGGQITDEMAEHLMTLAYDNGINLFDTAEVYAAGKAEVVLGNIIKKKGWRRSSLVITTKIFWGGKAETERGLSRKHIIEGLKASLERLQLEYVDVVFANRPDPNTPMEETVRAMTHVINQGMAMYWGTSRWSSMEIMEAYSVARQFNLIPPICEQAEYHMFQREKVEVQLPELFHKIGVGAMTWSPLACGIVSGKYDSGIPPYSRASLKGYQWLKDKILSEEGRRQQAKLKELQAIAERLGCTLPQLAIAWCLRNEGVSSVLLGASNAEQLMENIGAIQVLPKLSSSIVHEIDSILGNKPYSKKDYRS

T3: Kvβ2.1CFP (mouse (from the prefix m in mKvβ2.1)), P62482
T3 chain: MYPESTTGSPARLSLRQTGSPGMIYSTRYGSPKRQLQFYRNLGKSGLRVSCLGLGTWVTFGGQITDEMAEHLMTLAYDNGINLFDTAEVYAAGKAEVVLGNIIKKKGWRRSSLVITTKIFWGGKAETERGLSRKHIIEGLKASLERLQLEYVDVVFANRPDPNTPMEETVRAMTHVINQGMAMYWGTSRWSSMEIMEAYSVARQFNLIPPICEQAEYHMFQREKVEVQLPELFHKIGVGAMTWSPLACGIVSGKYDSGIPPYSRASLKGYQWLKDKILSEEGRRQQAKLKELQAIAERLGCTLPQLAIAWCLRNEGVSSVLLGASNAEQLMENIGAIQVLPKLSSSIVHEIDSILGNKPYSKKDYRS

B1: Kvβ1.1YFP (natural protein, mouse (from the prefix m in mKvβ1.1), UniProt P63143 1-401, looked up)
chain: MQVSIACTEHNLKSRNGEDRLLSKQSSNAPNVVNAARAKFRTVAIIARSLGTFTPQHHISLKESTAKQTGMKYRNLGKSGLRVSCLGLGTWVTFGGQISDEVAERLMTIAYESGVNLFDTAEVYAAGKAEVILGSIIKKKGWRRSSLVITTKLYWGGKAETERGLSRKHIIEGLKGSLQRLQLEYVDVVFANRPDSNTPMEEIVRAMTHVINQGMAMYWGTSRWSAMEIMEAYSVARQFNMIPPVCEQAEYHLFQREKVEVQLPELYHKIGVGAMTWSPLACGIISGKYGNGVPESSRASLKCYQWLKERIVSEEGRKQQNKLKDLSPIAERLGCTLPQLAVAWCLRNEGVSSVLLGSSTPEQLIENLGAIQVLPKMTSHVVNEIDNILRNKPYSKKDYRS
notes: voltage-gated potassium channel regulatory subunit Kvβ1.1 (splice form 1.1 of Kvβ1), mouse by the prefix m in mKvβ1.1; also called mKvβ1.1 in pEYFP-N1; source: HEK-293, transfected; in cells or membrane sheets (FRET) and in lysate (semidenaturing gel)

Experiments:
[1] = biological target: the molecule itself; assay: semidenaturing SDS-PAGE with immunoblot; total lysates of transfected HEK-293 cells, not boiled, 8% SDS-PAGE, immunoblot with anti-GFP antibody
Kvβ1.1CFP = biological target: T1, Kvβ1.1CFP; assay: FRET or BRET; linear unmixing FRET (lux-FRET) on suspensions of living HEK-293 cells in PBS at 37°C, different donor molar ratios; fit of apparent EfD and EfA against xD gives E and n (units per complex); conditions: partners not purified
[2] = biological target: T2, Kvβ2.1YFP (mouse (from the prefix m in …)); assay: semidenaturing SDS-PAGE with immunoblot; total lysates of transfected HEK-293 cells, not boiled, 8% SDS-PAGE, immunoblot with anti-GFP antibody; conditions: remark: other sources report otherwise
[3] = biological target: T3, Kvβ2.1CFP (mouse (from the prefix m in …)); assay: FRET or BRET; linear unmixing FRET (lux-FRET) on suspensions of living HEK-293 cells in PBS at 37°C, different donor molar ratios; fit of apparent EfD and EfA against xD gives E and n (units per complex); conditions: remark: other sources report otherwise
Kvβ1.1YFP = biological target: B1; assay: as above; conditions: partners not purified

| Binder | stoichiometry N [1] | FRET efficiency (E) (Kvβ1.1CFP) [%] | stoichiometry N (Kvβ1.1CFP) | other results |
| --- | --- | --- | --- | --- |
| B1 | 2 and 4 | 30.2 | 1.93 | – |
| Kvβ2.1YFP, P62482 1-367 (natural protein) MYPESTTGSPARLSLRQTGSPGMIYSTRYGSPKRQLQFYRNLGKSGLRVSCLGLGTWVTFGGQITDEMAEHLMTLAYDNGINLFDTAEVYAAGKAEVVLGNIIKKKGWRRSSLVITTKIFWGGKAETERGLSRKHIIEGLKASLERLQLEYVDVVFANRPDPNTPMEETVRAMTHVINQGMAMYWGTSRWSSMEIMEAYSVARQFNLIPPICEQAEYHMFQREKVEVQLPELFHKIGVGAMTWSPLACGIVSGKYDSGIPPYSRASLKGYQWLKDKILSEEGRRQQAKLKELQAIAERLGCTLPQLAIAWCLRNEGVSSVLLGASNAEQLMENIGAIQVLPKLSSSIVHEIDSILGNKPYSKKDYRS | – | – | – | stoichiometry N [2]: 2 and 4; FRET efficiency (E) [3]: 22.3%; stoichiometry N [3]: 2.09 |
| Kvβ2.1YFP (natural protein, mouse (from the prefix m in mKvβ2.1), UniProt P62482 1-367, looked up, voltage-gated potassium channel regulatory subunit Kvβ2.1, mouse by the prefix m in mKvβ2.1; also called mKvβ2.1 in pEYFP-N1; Kvb2.1 YFP; source: HEK-293, transfected; in cells or membrane sheets (FRET) and in lysate (semidenaturing gel)) MYPESTTGSPARLSLRQTGSPGMIYSTRYGSPKRQLQFYRNLGKSGLRVSCLGLGTWVTFGGQITDEMAEHLMTLAYDNGINLFDTAEVYAAGKAEVVLGNIIKKKGWRRSSLVITTKIFWGGKAETERGLSRKHIIEGLKASLERLQLEYVDVVFANRPDPNTPMEETVRAMTHVINQGMAMYWGTSRWSSMEIMEAYSVARQFNLIPPICEQAEYHMFQREKVEVQLPELFHKIGVGAMTWSPLACGIVSGKYDSGIPPYSRASLKGYQWLKDKILSEEGRRQQAKLKELQAIAERLGCTLPQLAIAWCLRNEGVSSVLLGASNAEQLMENIGAIQVLPKLSSSIVHEIDSILGNKPYSKKDYRS | – | 32.5 | 1.88 | – |
| Kvβ2.1CFP (natural protein, mouse (from the prefix m in mKvβ2.1), UniProt P62482 1-367, looked up, voltage-gated potassium channel regulatory subunit Kvβ2.1, mouse by the prefix m in mKvβ2.1; also called mKvβ2.1 in pECFP-N1; source: HEK-293, transfected; in lysate (co-IP) and in cells or membrane sheets (FRET)) MYPESTTGSPARLSLRQTGSPGMIYSTRYGSPKRQLQFYRNLGKSGLRVSCLGLGTWVTFGGQITDEMAEHLMTLAYDNGINLFDTAEVYAAGKAEVVLGNIIKKKGWRRSSLVITTKIFWGGKAETERGLSRKHIIEGLKASLERLQLEYVDVVFANRPDPNTPMEETVRAMTHVINQGMAMYWGTSRWSSMEIMEAYSVARQFNLIPPICEQAEYHMFQREKVEVQLPELFHKIGVGAMTWSPLACGIVSGKYDSGIPPYSRASLKGYQWLKDKILSEEGRRQQAKLKELQAIAERLGCTLPQLAIAWCLRNEGVSSVLLGASNAEQLMENIGAIQVLPKLSSSIVHEIDSILGNKPYSKKDYRS | – | – | – | FRET efficiency (E) (Kvβ1.1YFP): 30.4%; stoichiometry N (Kvβ1.1YFP): 1.99 |
| Kv1.3YFP (natural protein, UniProt P15384 1-525, looked up, voltage-gated potassium channel Kv1.3 (α subunit); Used as the tetrameric positive control; source: HEK-293, transfected; in cells (FRET) and in lysate (semidenaturing gel)) MTVVPGDHLLEPEAAGGGGGDPPQGGCVSGGGCDRYEPLPPALPAAGEQDCCGERVVINISGLRFETQLKTLCQFPETLLGDPKRRMRYFDPLRNEYFFDRNRPSFDAILYYYQSGGRIRRPVNVPIDIFSEEIRFYQLGEEAMEKFREDEGFLREEERPLPRRDFQRQVWLLFEYPESSGPARGIAIVSVLVILISIVIFCLETLPEFRDEKDYPASPSQDVFEAANNSTSGASSGASSFSDPFFVVETLCIIWFSFELLVRFFACPSKATFSRNIMNLIDIVAIIPYFITLGTELAERQGNGQQAMSLAILRVIRLVRVFRIFKLSRHSKGLQILGQTLKASMRELGLLIFFLFIGVILFSSAVYFAEADDPSSGFNSIPDAFWWAVVTMTTVGYGDMHPVTIGGKIVGSLCAIAGVLTIALPVPVIVSNFNYFYHRETEGEEQAQYMHVGSCQHLSSSAEELRKARSNSTLSKSEYMVIEEGGMNHSAFPQTPFKTGNSTATCTTNNNPNSCVNIKKIFTDV | 2 and 4 | – | – | – |
